Two substances from patent US20110201118 can be followed below.

The subject of data set [1] is TAL/GFP-L dTALEN (synthetic construct). The data set can be described thus: cell_activity. The conditions noted are these: paired with TAL/GFP-R; 5/10 clones at 0.5 ug/well in HEK293T; 0/4 without TALEN.
In data set [2] the test system is TAL/GFP-R dTALEN (synthetic construct). The data set can be described thus: cell_activity. The conditions noted are these: paired with TAL/GFP-L; 5/10 clones at 0.5 ug/well in HEK293T; 0/4 without TALEN.

In data set [1], eGFP target, TAL/GFP-L half-site registered an activity (% clones with deletions) of 50.

In data set [2], eGFP target, TAL/GFP-R half-site came in with an activity (% clones with deletions) of 50.
